Publication PMC3920478, “Small molecule-mediated refolding and activation of myosin motor function” (eLife, 2014)
Entries after “also recorded” stand apart in the source; their conditions may differ.

Key:
[1] = target: T1, β-cardiac myosin S1 (Sus scrofa, UniProt P79293); test: Microscale thermophoresis direct binding; set-up: species or system Porcine
T1 construct: S1 and HMM fragments were produced by proteolytic digestion of the full-length proteins with 0.05 mg/ml papain; from tissue; host or cells: porcine cardiac muscle
Excerpt: Proteolytic fragments were further purified by actin-coprecipitation.

[2] = test system: phosphodiesterase III; set-up: method as in Gambassi et al., 1993; details: ref Gambassi et al., 1993; cited from earlier work
[3] = target: β-cardiac myosin (Sus scrofa, UniProt P79293); test: Steady-state basal and actin-activated Mg2+-ATPase (NADH-coupled assay); type: biochemical, Porcine; details: β-cardiac myosin S1, dose-dependence
Protocol: Rabbit fast skeletal muscle heavy meromyosin (HMM) was prepared as described by [Margossian and Lowey (1982)]. Porcine β-cardiac myosin was prepared essentially as described by [Pant et al. (2009)] and [Jacques et al. (2008)] and further purified by gel filtration. S1 and HMM fragments were produced by proteolytic digestion of the full-length proteins with 0.05 mg/ml papain (10 min, 25°C) for S1 and with 0.1 mg/ml TLCK-treated α-chymotrypsin (15 min, 25°C) for HMM. Reactions were stopped with specific protease inhibitors for papain (10 µM E−64) and chymotrypsin (10 µM chymostatin, 1 mM benzamidine). Proteolytic fragments were further purified by actin-coprecipitation. Pellets were washed twice and myosin was extracted from the pellets using ATP containing buffer. Gel filtration was used to further increase purity of myosin S1 and HMM fragments. His-tagged motor domain constructs of Dd myosin-2, Dd myosin-1B, Dd myosin-1C, Dd myosin-1D, Dd myosin-1E, Dd myosin-5b fused to two Dd α-actinin repeats substituting the light-chain binding domains ([Anson et al., 1996]) were expressed in Dd AX3-ORF + cells and purified by Ni^2+-chelate affinity chromatography ([Manstein and Hunt, 1995]).
Basal and actin-activated Mg^2+-ATPase activities were measured using the NADH-coupled assay described previously ([Furch et al., 1998]) adapted for higher throughput screens for a temperature controlled plate reader (Multiscan FC, Thermo Scientific, Waltham, MA) at 25°C. […] Control measurements were carried out in the absence of drug, as well as in the presence of according concentrations of the non-binding (−)-enantiomer EMD 57439 to account for possible absorption effects. […] Data points are mean values from 3 to 5 independent experiments. Error bars indicate standard deviations.

[4] = target: F-actin (UniProt P68135)

Sequence of β-cardiac myosin (P79293 1-810 limits assumed): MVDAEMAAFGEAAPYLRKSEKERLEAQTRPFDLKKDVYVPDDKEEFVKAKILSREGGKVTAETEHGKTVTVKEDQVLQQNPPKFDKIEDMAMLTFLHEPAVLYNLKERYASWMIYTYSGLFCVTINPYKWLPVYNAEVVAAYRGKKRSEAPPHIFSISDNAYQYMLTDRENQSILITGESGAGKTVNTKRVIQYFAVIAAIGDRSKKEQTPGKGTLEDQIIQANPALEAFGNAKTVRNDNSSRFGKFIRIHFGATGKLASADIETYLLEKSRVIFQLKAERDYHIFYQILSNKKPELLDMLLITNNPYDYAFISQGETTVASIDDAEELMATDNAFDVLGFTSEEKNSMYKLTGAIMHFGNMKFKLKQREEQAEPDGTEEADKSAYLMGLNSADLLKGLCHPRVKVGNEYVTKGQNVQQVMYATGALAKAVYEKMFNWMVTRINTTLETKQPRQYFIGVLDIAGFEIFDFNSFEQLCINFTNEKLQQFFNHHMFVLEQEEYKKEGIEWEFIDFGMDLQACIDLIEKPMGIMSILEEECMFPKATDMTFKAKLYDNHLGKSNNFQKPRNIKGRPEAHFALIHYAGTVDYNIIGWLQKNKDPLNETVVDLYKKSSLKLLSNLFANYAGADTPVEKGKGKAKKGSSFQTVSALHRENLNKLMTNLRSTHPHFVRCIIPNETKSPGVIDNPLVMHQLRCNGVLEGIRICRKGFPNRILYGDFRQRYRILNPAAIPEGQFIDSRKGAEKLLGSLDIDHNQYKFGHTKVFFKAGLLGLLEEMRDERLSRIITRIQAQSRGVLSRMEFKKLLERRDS
T1 sequence (P79293 1-843 limits assumed): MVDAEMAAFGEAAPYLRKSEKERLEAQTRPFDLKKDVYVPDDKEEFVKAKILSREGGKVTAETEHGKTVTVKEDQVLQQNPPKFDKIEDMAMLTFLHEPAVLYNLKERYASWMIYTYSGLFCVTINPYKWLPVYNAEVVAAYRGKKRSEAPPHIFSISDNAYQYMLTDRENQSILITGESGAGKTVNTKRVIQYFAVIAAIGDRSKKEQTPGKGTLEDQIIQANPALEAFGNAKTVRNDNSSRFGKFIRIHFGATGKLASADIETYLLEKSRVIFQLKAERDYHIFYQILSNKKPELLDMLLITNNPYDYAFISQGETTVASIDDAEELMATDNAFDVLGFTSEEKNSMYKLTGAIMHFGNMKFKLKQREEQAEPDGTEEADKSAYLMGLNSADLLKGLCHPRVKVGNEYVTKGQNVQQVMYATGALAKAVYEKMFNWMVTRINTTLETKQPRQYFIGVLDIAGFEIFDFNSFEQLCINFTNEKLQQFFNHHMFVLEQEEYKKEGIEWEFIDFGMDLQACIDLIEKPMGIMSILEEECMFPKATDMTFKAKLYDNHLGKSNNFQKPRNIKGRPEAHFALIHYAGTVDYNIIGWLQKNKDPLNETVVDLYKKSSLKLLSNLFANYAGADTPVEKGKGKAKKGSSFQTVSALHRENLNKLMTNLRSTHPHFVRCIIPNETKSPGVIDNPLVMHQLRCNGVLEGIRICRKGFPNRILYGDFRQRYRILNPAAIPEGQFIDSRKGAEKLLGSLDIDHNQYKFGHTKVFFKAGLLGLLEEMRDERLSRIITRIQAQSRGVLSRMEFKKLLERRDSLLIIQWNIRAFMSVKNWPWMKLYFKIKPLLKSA

Row | K M(Actin): F-actin concentration for half-maximal activation of the steady-state ATPase, control without EMD 57033 [4] | K M(Actin): F-actin concentration for half-maximal activation of the steady-state ATPase, with 25 µM EMD 57033 [4] | kcat/K M(Actin) of the actin-activated ATPase, calculated ratio, control without EMD 57033 [4] | kcat/K M(Actin) of the actin-activated ATPase, calculated ratio, with 25 µM EMD 57033 [4] | Compound | Binding (in words) [1] | Phosphodiesterase III inhibition [2] | Activation of the actin-activated ATPase (in words) [3]
1 | – | – | – | – | COc1ccc(C(=O)N2CCCc3cc(C4=NNC(=O)SC4C)ccc32)cc1OC (stereo not shown) [EMD 57439] | Neither binding nor activation was observed | potent phosphodiesterase III inhibitor | Neither binding nor activation was observed; also recorded: no activation
2 | 36.8 µM | 3.6 µM | 3260 M⁻¹ s⁻¹ | 0.0528 µM^v1 s^−1 | β-cardiac myosin (from UniProt P79293 1-1935) (natural protein) | – | – | –
